Tested on: m3C_FRET substrate (m3C-containing DNA)
Experiment: Stopped-flow FRET pre-steady-state kinetics of m3C DNA demethylation
Assay type: biochemical
Settings: for k1 × 10^−6 / k2 / k3 / kr (irreversible step of substrate hydroxylation) / k−1 / k−2 / k−3 / Kd: global fitting of SF data to Scheme 1; for Kd: read-out: Kd^Product (equilibrium dissociation constant of the enzyme–product complex); for Ka = K1 + K1 × K2 + K1 × K2 × K3: overall affinity for damaged DNA, Ki = ki/k−i
Text: In previous research, we employed a stopped-flow (SF) method to detect conformational changes in the dioxygenases AlkB and ALKBH2, as well as their substrates, throughout the catalytic cycle. The SF technique provides excellent opportunities for studying the conformational dynamics of protein–nucleic acid complexes under pre-steady-state conditions within the millisecond time range. Conformational transitions are typically detected by measuring the fluorescent signal from the tryptophan residues of the enzyme or fluorescent labels incorporated into the DNA substrate sequence. […] It should be noted that another common approach to detecting conformational dynamics based on measurement of the intrinsic Trp fluorescence of ALKBH3 was unsuccessful due to a low signal-to-noise ratio. The time-dependent FRET signal profiles following rapid (1 ms) mixing of equimolar amounts of enzyme and the m3C_FRET substrate in the presence of Fe(II) and 2OG ligands were obtained under near single-turnover conditions (Figure 3). […] In the case of the wt protein, the initial stage of the enzyme–substrate interaction was accompanied by a slight increase in the FRET signal between 20 ms and 2 s. Subsequently, from 10 s to 250 s, a significant quenching of fluorescence occurs, followed by stabilization at a constant level. The kinetic curve obtained for the Y143F mutant was similar to wt ALKBH3, except that the phase of decrease in the signal was shifted towards longer time scales (20–600 s).
For wt and Y143F ALKBH3, a series of SF traces were recorded across a range of m3C substrate concentrations from 0.5 to 4.0 µM (Figure 4). […] Additionally, a slight increase in signal, absent in the native protein, is discernible in the initial segment (1–5 ms) of the curves for Y143F ALKBH3, most likely indicative of the primary enzyme–substrate binding.
Table 1 summarizes the values of the rate constants describing the forward and reverse reactions of the mechanism, as well as the equilibrium dissociation constant of the enzyme–product complex. […] Subsequent isomerization of the enzyme–substrate complex is characterized by two equilibrium steps, which occur at half the rate in wt ALKBH3, yet with greater efficiency than for the Y143F protein. To assess the overall affinity of ALKBH3’s active site for damaged DNA, the equilibrium constant Ka = K1 + K1 × K2 + K1 × K2 × K3, where Ki = ki/k−i, was determined. […] In contrast, the rate of the step of irreversible hydroxylation of the methyl group by the native protein (kr^wt = 0.023 s^−1) is nearly twice as fast as that of the Y143F mutant (kr^Y143F = 0.013 s^−1). Furthermore, the equilibrium dissociation constant of the enzyme–product complex (Kd^Product) is almost an order of magnitude higher for wt ALKBH3. […] The substitution of Tyr143 with Phe leads to a reduction in the rate and efficiency of demethylation of the m3C substrate, likely due to perturbations in the structure of the catalytically competent complex and strong product binding, which complicates the enzyme’s transition to the next turnover.
Figure 3 Time courses of the FRET signal generated by the FAM/BHQ1 pair under interactions of wt, Y143F, Y143A, L177A, and H191A ALKBH3 with m3C-containing DNA. The fluorescence traces represent changes in the FRET signal after rapid mixing of 1.5 µM m3C_FRET substrate with 1.5 µM protein in the presence of 40 µM Fe(II) and 1 mM 2OG. Each curve was collected in a split mode within four time intervals (up to 0.1, 1, 50, and 500 or 1000 s) in 4–5 replicates.
Figure 4 Pre-steady-state kinetics of m3C-containing DNA demethylation by wt (A) and Y143F (B) ALKBH3 proteins.

k1 (formation of the primary enzyme–substrate complex) [M⁻¹ s⁻¹]	Kd [nM]	Molecule	k1 × 10^−6 [M^−1 s^−1]	k2 [s⁻¹]	k3 [s⁻¹]	kr (irreversible step of substrate hydroxylation) [s⁻¹]	k−1 [s⁻¹]	k−2 [s⁻¹]	k−3 [s⁻¹]	kr (irreversible step of substrate hydroxylation) (listed as wt) [s⁻¹]	Ka = K1 + K1 × K2 + K1 × K2 × K3	kr (irreversible step of substrate hydroxylation) (listed as Y143F) [s⁻¹]
9.4e+07	720	wt ALKBH3: wild-type human Fe(II)/2OG-dependent dioxygenase ALKBH3 with N-terminal His-tag, expressed in E. coli (protein, UniProt Q96Q83 1-286, looked up, N-terminal His-tag, wild-type human Fe(II)/2OG-dependent dioxygenase ALKBH3 with N-terminal His-tag, expressed in E. coli) Alpha-ketoglutarate-dependent …: MEEKRRRARVQGAWAAPVKSQAIAQPATTAKSHLHQKPGQTWKNKEHHLSDREFVFKEPQQVVRRAPEPRVIDREGVYEISLSPTGVSRVCLYPGFVDVKEADWILEQLCQDVPWKQRTGIREDITYQQPRLTAWYGELPYTYSRITMEPNPHWHPVLRTLKNRIEENTGHTFNSLLCNLYRNEKDSVDWHSDDEPSLGRCPIIASLSFGATRTFEMRKKPPPEENGDYTYVERVKIPLDHGTLLIMEGATQADWQHRVPKEYHSREPRVNLTFRTVYPDPRGAPW	19 ± 3	2.9 ± 0.9	0.57 ± 0.12	0.023 ± 0.003	64 ± 5	2.8 ± 0.5	0.13 ± 0.01	0.023	(1.9 ± 0.2) × 10^6 M^−1	–
1.9e+07	83	Y143F ALKBH3: ALKBH3 mutant, Tyr143 replaced with Phe (protein, UniProt Q96Q83 1-286, looked up, variant Y143F) Alpha-ketoglutarate-dependent …: MEEKRRRARVQGAWAAPVKSQAIAQPATTAKSHLHQKPGQTWKNKEHHLSDREFVFKEPQQVVRRAPEPRVIDREGVYEISLSPTGVSRVCLYPGFVDVKEADWILEQLCQDVPWKQRTGIREDITYQQPRLTAWYGELPYTFSRITMEPNPHWHPVLRTLKNRIEENTGHTFNSLLCNLYRNEKDSVDWHSDDEPSLGRCPIIASLSFGATRTFEMRKKPPPEENGDYTYVERVKIPLDHGTLLIMEGATQADWQHRVPKEYHSREPRVNLTFRTVYPDPRGAPW	94 ± 3	6.1 ± 1.4	1.4 ± 0.1	0.013 ± 0.001	270 ± 26	7.7 ± 0.24	0.48 ± 0.03	–	(1.4 ± 0.1) × 10^6 M^−1	0.013

Reference: paper PMC10816986, “The Role of Key Amino Acids of the Human Fe(II)/2OG-Dependent Dioxygenase ALKBH3 in Structural Dynamics and Repair Activity toward Methylated DNA” (International Journal of Molecular Sciences, 2024)
